To fix the notation:
B1: Hairpin Ribozyme (parent)
chain: GUCCUCUUUCACGUGCGCGUGAAAGAGAGAAGUGAACCAGAGAAACACACGUUGUGGUAUAUUACCUGGUA

The variants in this data set derive from B1. The data set is described as follows: self-cleavage, relative activity (ratio to wild type); higher = more cleavage; co-transcriptional.
G29C U55A: the self-cleavage stood at 0.164. The value for G15U A44U was 0.174; that for A36C A61G was 0.148; that for U7C G56A was 0.184.

On to A30C A59U, for which the self-cleavage was determined as 0.169. Then G29A C65A, with 0.0759. G42U A59C: the self-cleavage came out at 0.118. As to A49U G56C, the self-cleavage is 0.102. As for A31U U63C, the self-cleavage was 0.247.

On to A41C U62G, for which the self-cleavage was 0. U14A U55G: the self-cleavage came to 0.179.

As for C37G G40U, the self-cleavage came to 0.186.

Regarding A39U A43C, the self-cleavage is 0.129. In the case of U5A A30U, the self-cleavage was found to be 0.263. G25U G40A: the self-cleavage amounted to 0.256. For C38U U58C, the self-cleavage came out at 0.544. As to U2A U33A, the self-cleavage is 0.077. In the case of A23G C65U, the self-cleavage is 0.349. With A22U A41G, the self-cleavage came to 0.776. Consider G15U G27U, for which the self-cleavage was found to be 0.35. The value for U8G G40C was 0.111; that for A11C G34C was 1.07; that for A31U C48G was 0.0916. Regarding A11U U67G, the self-cleavage was 0.287. The value for U53A G57U was 0.181; that for C6G U33C was 0.206; that for C6G U33G was 0.0659.

As for G15C A41C, the self-cleavage was 1.28.

As to G29A U67A, the self-cleavage was determined as 0.0562. As for G32U A49G, the self-cleavage came out at 0.128.

Consider U9C A47U, for which the self-cleavage came to 0.178. As to G34A, the self-cleavage is 1.21. As for A11G G42U, the self-cleavage was 0.314. Then A44U U60A, with 0.239. With C16U U33G, the self-cleavage came to 0.148.

As to G68U G69A, the self-cleavage was found to be 0.3.

In the case of U60G C66U, the self-cleavage turned out to be 0.361. For G13C G40U, the self-cleavage is 0.158. With U53G A71U, the self-cleavage came to 0.635. Then G32C A39U, with 0.174. For G15U A31U, the self-cleavage is 0.232. With A24U G27C, the self-cleavage worked out at 0.194. As to G32C U55G, the self-cleavage amounted to 0.0931. With G34C A43C, the self-cleavage amounted to 0.144.

U14A A26U: the self-cleavage came to 0.503.

As to G42A C50U, the self-cleavage was 0.106.

Consider G32A C50A, for which the self-cleavage worked out at 0.168. A64G U67G: the self-cleavage was determined as 0.159. On to G32A A36G, for which the self-cleavage turned out to be 0.0788. Then G19A C65U, with 0.265; and G19A C65A, with 0.748; and C12A C48U, with 0.112. Take C46G C50G: the self-cleavage came out at 0.217. On to U8G C50U, for which the self-cleavage was 0.327.

Consider C18A G27A, for which the self-cleavage was 0.534.

In the case of A28G U67G, the self-cleavage turned out to be 0.294. A31C A59G: the self-cleavage amounted to 0.132.

Regarding A39U U52C, the self-cleavage worked out at 0.378.

As for A24U G56U, the self-cleavage is 0.232. Then A43U A59G, with 0.166; and C10G A45G, with 0.118. For the variant U2C A71U, the self-cleavage worked out at 0.2.

For the variant U5C A31G, the self-cleavage is 0.391. For the variant G54U C66U, the self-cleavage was 0.211. The value for A49G U70G was 0.453; that for U33G G69C was 0.038; that for C10G G68C was 0.199. For the variant U20C U58C, the self-cleavage amounted to 0.893.

On to U14A A41C, for which the self-cleavage is 1.34. Consider G54U U63A, for which the self-cleavage worked out at 0.267. Then C10G U52C, with 0.536. As for G32A C66U, the self-cleavage was 0.177. As to C16U A59U, the self-cleavage was 0.173.

As for G15U A45C, the self-cleavage came out at 0.169. With G15U A45G, the self-cleavage amounted to 0.184. For A39G A41G, the self-cleavage is 0.619. On to A59U U67A, for which the self-cleavage is 0.141. In the case of A23U A61G, the self-cleavage was determined as 0.125.

Turning to G42A U67C, the self-cleavage worked out at 0.105. With A35G A59G, the self-cleavage was 0.266. The value for U5A A71U was 0.334; that for A39C G56C was 0.144. In the case of A23U U52G, the self-cleavage came out at 0.753. Regarding C4G A64C, the self-cleavage was determined as 0.167. C3G G69C: the self-cleavage amounted to 0.177.

Consider A23U G68C, for which the self-cleavage was 0.139.

With G1U U62G, the self-cleavage turned out to be 0.163. Take G29A G56U: the self-cleavage is 0.111.

As to G32C G51A, the self-cleavage came out at 0.14. Then A44C U60C, with 0.0498; and A30C U53A, with 0.0771.

For the variant A30G A41C, the self-cleavage is 0.201.

Turning to A11U A31G, the self-cleavage turned out to be 0.464. Then A23C A24G, with 0.85; and C10G U58G, with 0.441; and C12G G69C, with 0.355. Then U33G C38G, with 0.128; and G42C G54A, with 0.159. As to U7C C48A, the self-cleavage is 0.114. For U7G A43G, the self-cleavage turned out to be 0.023. In the case of G34A C38G, the self-cleavage amounted to 0.195. Turning to G1U A41U, the self-cleavage turned out to be 0.0959. Regarding G21C G69A, the self-cleavage was determined as 0.419. Consider G54C G68A, for which the self-cleavage came to 0.187. As to U62G U63C, the self-cleavage is 0.243.

In the case of A45C G69A, the self-cleavage stood at 0.116.

As to U2G U33G, the self-cleavage worked out at 0.171. The value for U9A U70A was 0.581. For the variant A44G U70C, the self-cleavage amounted to 0.262. Then U2G A26U, with 0.238.

For the variant C10A A59G, the self-cleavage amounted to 0.149. With C10U G51C, the self-cleavage was 0.783. In the case of G29A A30G, the self-cleavage was determined as 0.135. On to G42C A45C, for which the self-cleavage amounted to 0.0604. In the case of C50A U55C, the self-cleavage came to 0.582. Take A11C U52G: the self-cleavage was determined as 0.857. Then A23C U33C, with 0.307; and A47C U63C, with 0.0902; and A11C C37U, with 0.494. The value for U5A A11G was 0.324; that for C6A A22U was 0.352. On to G54C U55A, for which the self-cleavage worked out at 0.196. On to A44C U62G, for which the self-cleavage was found to be 0.304.

On to A11U A26G, for which the self-cleavage is 0.751.

Turning to U20C A59C, the self-cleavage was found to be 0.185.

For the variant A31G G56A, the self-cleavage stood at 0.0841. The value for A36C A59G was 0.203; that for A28U A47U was 0.125. As for G1U A22G, the self-cleavage turned out to be 0.101. For the variant U8G A28G, the self-cleavage was 0.843.

Consider G27U G42U, for which the self-cleavage was found to be 0.188.

For U53G G56U, the self-cleavage is 0.223. The value for C4A U62G was 0.1. With U7C A47G, the self-cleavage came out at 0.0534. The value for G27C C66U was 0.162; that for C6G A22U was 0.377. As to G15C U33G, the self-cleavage came to 0.0645. On to G1C C37A, for which the self-cleavage came out at 0.0534. Take C3U G21C: the self-cleavage is 0.32.

Regarding A35U C48G, the self-cleavage is 0.215. The value for C10A U33G was 0.114. Take A36G C46A: the self-cleavage turned out to be 0.0586. Consider U20A G34C, for which the self-cleavage was found to be 1.26. Regarding C48A G57C, the self-cleavage turned out to be 0.148. For the variant A26C C65G, the self-cleavage worked out at 0.226. The value for C4G C48G was 0.0514. Then A35C G40A, with 0.208.

Consider G15U, for which the self-cleavage is 1.08. For U2A A22G, the self-cleavage turned out to be 0.175.

Turning to C37A A64C, the self-cleavage was found to be 0.144.

Take U20C G29U: the self-cleavage came out at 0.235.

As to C3U C4A, the self-cleavage turned out to be 0.0854.

As for U8C C12G, the self-cleavage came out at 0.229. Consider C37U, for which the self-cleavage worked out at 0.614. Regarding C37U G54C, the self-cleavage worked out at 0.338. Then G19C U55C, with 0.271. Turning to C4G G25U, the self-cleavage worked out at 0.177.

Take C18G U52G: the self-cleavage is 0.538. Consider C3G G19U, for which the self-cleavage was 0.26. On to C18U U20A, for which the self-cleavage is 0.848. Turning to U14G G57C, the self-cleavage amounted to 0.0955. In the case of C38G G69A, the self-cleavage was found to be 0.196. Consider C65A U67G, for which the self-cleavage is 0.197. For the variant G27C A30C, the self-cleavage was found to be 0.0463. The value for C12A C18G was 0.872. Consider U55A G69A, for which the self-cleavage is 0.172. Take U2A A36C: the self-cleavage is 0.143.

(Values after the RNAGym collection of RNA variant scans (doi:10.7554/elife.80360).)
